Here are results for 7 molecules from publication PMC12000511, “Molecular basis for the assembly of the Vps5-Vps17 SNX-BAR proteins with Retromer” (Nature Communications, 2025).

Series [1] concerns the target ctVps5 (full length, homodimer) (Chaetomium thermophilum). In words: mass photometry; Refeyn OneMP, low ionic strength: 50 mM Tris-HCl pH 7.5, 40 mM NaCl, 2 mM β-ME.
The target is the same in series [2]. Briefly: mass photometry; Refeyn OneMP, 50-100 nM protein, 50 mM Tris-HCl pH 7.5, 200 mM NaCl, 2 mM β-ME; ctRetromer and ctVps5 combined in a 1:1 ratio.
Series [3] has as its target ctVps29 (Chaetomium thermophilum). In words: ITC; Microcal PEAQ ITC, 25 °C, 50 mM Tris-HCl pH 7.5, 200 mM NaCl, 2 mM β-ME; Vps5/Vps17/SNX1 construct or peptide (200-400 µM) titrated into 10-15 µM Retromer or Vps29; single-site model, N set to 1.0 if close to 1. For orientation: Isothermal titration calorimetry measures the heat released or taken up as one component is titrated into another.

Series [4] has as its target ctRetromer (Chaetomium thermophilum Retromer trimer of ctVps35, ctVps26 and ctVps29) (Chaetomium thermophilum). Described as above.
The target is the same in series [5]. In words: ITC; as a1, with 100 µM of the control cyclic peptide RT-D1 L7E in the cell: 200 µM ctVps5 titrated into 10 µM ctRetromer.
The target is the same in series [6]. In words: ITC; as a1, with 100 µM of the cyclic peptide RT-D3 in the cell: 200 µM ctVps5 or GST-ctVps5(51–100) titrated into 10 µM ctRetromer or ctVps29.
The next series deals with T1, hRetromer (Homo sapiens, UniProt Q96QK1+Q9UBQ0).
T1 construct: GST (N); made in house; host or cells: E. coli BL21(DE3) (general statement for bacterial constructs)
In words: GST pull-down with hRetromer. The class given is binding. Conditions: 1 nmol GST-tagged protein, 2 nmol hRetromer, overnight 4 °C, SDS-PAGE/blot. The method, then:
GST pull-down assay of scVps5 and hRetromer was performed similar to the one described above with some modifications. The purified hRetromer at 2 nmol was mixed with 1 nmol GST-tagged hFam21R19–R21, scVps5_70–128 LF native, scVps5_70–128 LF mutant or GST alone separately overnight at 4 °C before added to fresh glutathione Sepharose pre-equilibrated with buffer as mentioned above. In all cases, beads were washed five times with the equilibration buffer and bounds proteins were analysed by SDS-PAGE gels.

Series [7] has as its system yeast vps5Δ cells (SEY6210). Briefly: Vacuole fragmentation (FM4−64) in vps5Δ yeast. The class given is cell-based, Saccharomyces cerevisiae. Conditions: vps5Δ cells complemented with Vps5 variant on plasmid. As for the experimental part:
(§1) The Saccharomyces cerevisiae strains are derived from SEY6210 (Supplementary Table 3). Vps5 and Pep4 deletions, Vps5 N-terminal point mutations and endogenous tagging of Vps10 was conducted based on the CRISPR-Cas9 system. The vector co-expressing single guide RNA and Cas9 enzyme was co-transformed into yeast cells with double-stranded oligonucleotides as the templates for homologous recombination (Supplementary Table 4). For Vps5 deletion, the template contained 40-bp homology upstream and downstream of its coding sequence. Vps10^mNeonGreen was created by a template comprising its C-terminal region with mutated PAM sequence and fused mNeonGreen tag followed by 40-bp homology region after the stop codon. Vam10 was cloned into pRS305 vector using Not1/Sma1 restriction sites to generate an integrative plasmid that was linearized, transformed and integrated ectopically into the auxotrophic selectable marker LEU2 gene locus.
The VPS5 gene with its native promoter, C-terminally fused HA-tag and ADH1 terminator was cloned into pRS314 centromeric plasmid. A point mutation was introduced in the start codon of VAM10 (M-to-I) by site-directed mutagenesis, because VAM10 overlaps with VPS5[71]. […] For the N-terminal deletion mutant of Vps5 (Δ1-280), residues 838–2025 of VPS5 were amplified and subcloned into the pRS314-VPS5-HA plasmid described above using Nco1/Sma1 restriction sites. The plasmid bearing the PL motif mutation (L196R) was generated using site-directed mutagenesis in the pRS314-VPS5-HA plasmid. To abolish all three putative binding sites to Retromer, a synthetic gene fragment of VPS5 (ordered from GenScript) containing the following mutations—start codon of VAM10 sequence(M-to-I), L196R, L121G, F122G and F161E—was subcloned into the pRS314-VPS5-HA plasmid using Nco1/Stu1 restriction sites.
Vacuoles were stained with FM4−64. Cells were grown in SD^-URA medium to an OD600 between 0.6 and 1.0. The culture was diluted to an OD600 of 0.4, and FM4−64 was added to a final concentration of 10 µM from a 10 mM stock in DMSO. […]

Series [8] relates to scRetromer and scSNX-BAR on supported membrane tubes. Briefly: Supported membrane tube (SMT) assay. The class given is biochemical, Saccharomyces cerevisiae.
Protocol: Supported membrane tubes were generated as described[46]. Briefly, glass coverslips were first washed with 3 M NaOH for 5 min and rinsed with water before a 60 min treatment with piranha solution (95% H2SO4/30% H2O2 3:2 v/v). Coverslips were rinsed with water and dried on a heat block at 90 °C. Coverslips were then silanized with 3-glycidyloxypropyltrimethoxysilane (Catalogue no. 440167, Sigma) for 5 h under vacuum, rinsed with acetone and dried. Polyethylene glycol coating was done by placing the coverslips in a beaker containing PEG400 (Sigma) at 90 °C for 60 h. Coverslips were washed with distilled water and stored for up to 2 months at room temperature in a closed container.
To generate supported membrane tubes, lipids were mixed from 10 mg/mL stocks in a glass vial and diluted to a final concentration of 1 mg/mL in chloroform. The same lipid mix was used throughout this study (5% PI(3)P, 15% DOPS, 0.1% fluorescent lipid tracer (Cy5.5 PE or Texas red DHPE), 79.5% egg-PC). Lipids were then spotted (typically 1 µL, corresponding to about 1 nmol) on the coverslips and dried for 30 min under vacuum. The coverslip was mounted on an IBIDI 6-channel µ-slide (µ-Slide VI 0.4. IBIDI, catalog no: 80606). Lipids were hydrated for 15 min with buffer (PBS) and SMTs were generated by injecting PBS into the chamber using an Aladdin Single-Syringe Pump (World Precision Instruments, model n°. AL-1000) at a flow rate of 1,5 mL/min for 5 min. SMTs were left to stabilize without flow for 5 min before the start of the experiment. Protein stocks (typically 1–2 µM) were first diluted in PBS and then injected in the chamber at a flow rate of 80 µL per minute. Cyclic peptides were added to the proteins from a 30 mM stock in DMSO to a final concentration of 300 µM. the protein/peptide mix was incubated for 1 min at room temp (23 °C) before being added to the SMTubes.
In another series the test system is Vps10. Briefly: Vps10-mNeonGreen localisation/recycling in vps5Δ yeast (Pearson colocalization with vacuole). The class given is cell-based, Saccharomyces cerevisiae. To be noted: vps5Δ cells complemented with Vps5 variant on plasmid; confocal microscopy.
From the text: Fig. 7 The interaction of Retromer with the Vps5 N-terminal domain is required for Vps10 recycling. A AlphaFold2 predicted structure of the scVps35–scVps29–scVps5 complex highlighting residues targeted for mutagenesis. B Yeast cells (SEY6210) carrying a Vps5 deletion, and expressing a copy of Vam10 (the VAM10 gene is embedded in VPS5 and deleted with it) and Vps10-mNeonGreen were complemented with centromeric plasmids expressing variants of Vps5. These cells were logarithmically grown in SD-URA medium, stained with FM4−64 and analysed by confocal microscopy. Single slices of the images are shown. Scale bar: 1 μm. Arrowheads indicate regions of Vps10 vacuolar localisation, and open arrowheads indicate Vps10 localised to pre-vacuolar comparmtnets. C Graph representation showing the Pearson Colocalizastion Coefficient between the vacuolar and Vps10 signals of Vps5 deleted yeast cells shown in B quantified using JACoP (Just Another Co-localization Plugin) implemented in ImageJ. Error bars are the standard deviations calculated from ≥ 70 measurements from 2 experiments.
as §1, with “locus. […]” for “locus.”

Changes are numbered by the printed parent chain. Numbers in names are those of the source. Where no end group is shown, it is not given here.

As for “ctRetromer (Chaetomium thermophilum Retromer trimer of ctVps35, ctVps26 and ctVps29) (complex)”, the stoichiometry N (ctRetromer per ctVps5 dimer) in series [1] was 2; in [2], 1.

In series [3], “GST-ctVps5_(51–100) (domain or fragment)” yielded a Kd of 1600 nM and a dH of -2.16 kcal/mol. In series [4], this molecule came in with a Kd of 660 nM and a dH of -4.1 kcal/mol.

Regarding “ctVps5 (full length, homodimer) (natural protein)”, in [4], the Kd is 720 nM and the dH is -8.5 kcal/mol. Further, the stoichiometry N in series [2] stood at 2. In [5], this molecule displayed a Kd with 100 µM RT-D1 L7E (control peptide) present of 750 nM and a dH of -7.53 kcal/mol. In series [6], the Kd with 100 µM RT-D3 (competitor) present amounted to 9410 nM and the dH is -10.5 kcal/mol.

In the case of “GST-tagged scVps5_70–128: GST-tagged S. cerevisiae Vps5 residues 70–128 containing the LF motif (GLSVAGNPQLEEHDNSKADDLINSLAPEQDPIADLKNSTTQFIATRESGGALFTGNANS; not fully specified (N-terminus); also: GST fusion, end not given here)”, the “binding to hRetromer in GST pull-down” value is “only binds weakly to VPS35” in the series with hRetromer and “binds weakly to hRetromer” with hRetromer (listed as GST- scVps570-128).

B1: quadruple mutant Vps5 (L121G/F122G/F161E/L196R): scVps5 mutant altering PL, [K/R]Φ and LFa sites (protein, UniProt Q92331 1-675, looked up, variant L121G F122G F161E L196R)
Vacuolar protein …: MDYEDNLEAPVWDELNHEGDKTQSLVSNSIESIGQISTNEERKDNELLETTASFADKIDLDSAPEWKDPGLSVAGNPQLEEHDNSKADDLINSLAPEQDPIADLKNSTTQFIATRESGGAGGTGNANSPLVFDDTIYDANTSPNTSKSISGRRSGKPRILEDSARAQRNSKRNHSLKAKRTTASDDTIKTPFTDPRKKAEKENEFVEEPLDDRNERRENNEGKFTASVEKNILEQVDRPLYNLPQTGANISSPAEVEENSEKFGKTKIGSKVPPTEKAVAFKVEVKDPVKVGELTSIHVEYTVISESSLLELKYAQVSRRYRDFRWLYRQLQNNHWGKVIPPPPEKQSVGSFKENFIENRRFQMESMLKKICQDPVLQKDKDFLLFLTSDDFSSESKKRAFLTGSGAINDSNDLSEVRISEIQLLGAEDAAEVLKNGGIDAESHKGFMSISFSSLPKYNEADEFFIEKKQKIDELEDNLKKLSKSLEMVDTSRNTLAASTEEFSSMVETLASLNVSEPNSELLNNFADVHKSIKSSLERSSLQETLTMGVMLDDYIRSLASVKAIFNQRSKLGYFLVVIENDMNKKHSQLGKLGQNIHSEKFREMRKEFQTLERRYNLTKKQWQAVGDKIKDEFQGFSTDKIREFRNGMEISLEAAIESQKECIELWETFYQTNL
Take B1: the “vacuole fragmentation” value in series [7] was “strong vacuole fragmentation”. Further, the “Vps5–Vps17 heterodimer formation of mutant” value in series [8] (quadruple mutant Vps5 with scVps17) is given as “do not impair heterodimer formation”. Also, the “coat formation / recruitment on SMTs” value in [8] (scSNX-BAR and scRetromer on SMTs containing 5% PtdIns(3)P) is on record as “showed a defect of coat formation”. Also, the “Vps10 recycling/localisation” value in the series on Vps10 is recorded as “severe Vps10 recycling sorting defect”.

B2: wildtype Vps5: S. cerevisiae wildtype Vps5 re-introduced into knockout cells (protein, UniProt Q92331 1-675, looked up)
Vacuolar protein …: B1 Vacuolar protein … with G121L, G122F, E161F, R196L
On to B2, for which, in series [7], the “vacuole fragmentation” value was “clear recovery of large vacuoles”. Also, the “Vps10 recycling/localisation” value in the series with Vps10 is “localization of Vps10-mNeonGreen on punctate structures”.

B3: Vps5 (L196R): single amino acid substitution in the core PL motif of scVps5 (protein, UniProt Q92331 1-675, looked up, variant L196R)
Vacuolar protein …: B1 Vacuolar protein … with G121L, G122F, E161F
On to B3, for which the “vacuole fragmentation” value in series [7] was “partial rescue of vacuole fragmentation”. Further, the “Vps10 recycling/localisation” value in the series on Vps10 is reported as “partial defect in Vps10 recycling”.

The Kd is the constant that tells how readily two partners part at equilibrium. Lower therefore signals tighter binding. The term stoichiometry N denotes the number of molecules, sites or subunits per partner or assembly.
